The record followed here is the NTF2 design screens of Basanta et al. (2020).

The data set is described as follows: protease stability score; higher = more stable; yeast display proteolysis, trypsin and chymotrypsin.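 Further: relative to predicted unfolded state with 0 unfolded-like and 1 meaning tenfold more protease.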
“SEEEDDLQHYIDVLRHILHTGDWQKFSEMADPTVKLKINGVEYHGREKLAHMLKKHLEELGYTRIEVELRSITIQGEFIKSDIKLDVNGQELRVRVDFYKINGKWSMTFLQIE”: the protease stability score was determined as 1.45.
Regarding “SEEEDEIRKMLEEVLKNWRTGNEERIYELADPNTRVEIDGREHHGRHVVAHLIKEWRIHDFILRRVDVQGNKVIIHGELEGEFDGKRTNLHTNLVLVKIDGRWVIESLHYV”, the protease stability score is 1.41.
As to “SEEEDESEEMARLFVKANITGDEKFLYHMADPHVRIHIHQGNKYIELHGREKLEYWLKEWLEKFKNIRYTINDMKVVGEKVTIESTLQIGDKRIHMQIVIVVINGRIHKFEFHLH”, the protease stability score is 0.755.
“SEEEDESKLATELLIKLLRTGNEHLSERLMDPNMRIVVNGVELHGREEAQRHMREMITQIKNAKIEIRDERTQGEYIKVNMILHYGDKTIDLRVVLVKVDGRWKITEIVLN” registered a protease stability score of 1.8.
The sequence “SEEEDFMRQVYHWFLELWLTGDEDIFKKLADPDTLLDWNGVQSVGMEEFHRLLHEMEERLGVKHKEYKRFRIQGNKVHLDLVHEFNGRRIKTEIVVVVVNGRFKEIRIRHH” displayed a protease stability score of 1.79.
“SEEEDHAKEMFRILIENLITGDEDTLRKLIDPDVRFIYGDKLHVGWKDFREWQHRMDRRVKNMKIHVRDMRVYNGVSHAETEEHYNGKTVETEVHFKVIDGQLKHLEIRIH” displayed a protease stability score of 0.188.
The figure for “SEEEDHIREFLLLIIHAFRTGDEEFFERNVDPNVRLHSDVDGRELQLHGRDEFSRYFHHFRHRAGIDHIEDKRVTSQGDKIIVHGWSIVGDKIHHLELHFIVIDGQVHTVEIRPK” is 1.28; for “SEEEDHIRRAIERFSKDQETGDEDSIRELLDPHVRMHVDGQELIGRDLILKFWSELRVHHWEMHSVRVVGDYVDFDVTLDMRVGDKSHRIKATLIILKIDGRWILKLVIID” it is 1.19; for “SEEEDISRNLLEIFLRVLLTGDEHAISRLLDPRVLVIFHFENRDIILHGRSNVLKWLHDRLREIRINDWSVKSVEVQGNKAHQDTRIDIIIGDKKIDKEVEVNITVVDGKVKHLEIRVH” it is 2.21.
Regarding “SEEEDKARHLFDRLVHAWHTGDWRELKHLLDPNAKFVLEYGDKKETYHGMDEEIRYLEELHKRVDHIHFLIRHVDIQGDKLRVEGELEYRVGDYERRIPTSYEVIVIDGRIHEIISRIH”, the protease stability score came to 2.11.
In turn, “SEEEDLFRKIIELLLRLSKTGDEETWRRLMDPHARLEINGRIFHGREYAERFMTQFDHIHSIEIKDMHIYNGKVEEHGHVDGIVNGRRTKHDMVFILVKVDGVWLIEEVVVR” showed a protease stability score of 1.39.
The sequence “SEEEDLHRHIMRLFLEWVLTGDEEDLYHFADPHTQFRYGDYELHGMEKIVEEILRFTHELRITHFTIHQMDVFNGKAESDVEWHKDVNGQEVRFRLKLILIVINGRTKSIEIRHK” came in with a protease stability score of 1.23.
The sequence “SEEEDLMRHLTELYIRAFETGDEDHLRKLADPHVRLHVDIDGKRLDFHGMEQTSEWWERMGIDVHHLHHHEFIGDKSHIDSEVVFNGRKRKFEINVVIVNGRIKSERHIFK” came in with a protease stability score of 0.691.
The figure for “SEEEDLVQKAFEIFVHDIRTGDEDSLIENADPNVRLLINGVIFHGREEFKFIMRHWRIRRIELHDYRIQGDKAHVESRMDIEFNGRIRITHVELVILKVNGQWLIHTIKVI” is 0.454; for “SEEEDLWKEFLRRLVETSNTGNERILSELFDPRTRIIYNGVDYVGREWALFMFLRADHVHIRIKSVDVQGEKAHVDGRMIQFVGDKEERHEVQLIDVKIDGRWLIRMMTVR” it is 1.51.
In the case of “SEEEDMARHFNELFIKMLKTGNEEEIKKMADPEVRIIIDVGDYIERDHGWEVLKREREWLGIKHIDIERAEIRVFDGRVHLKLDGRSNVNGKEIEVEIINDTEKINGRWRMKNLRYIFK”, the protease stability score worked out at 1.08.
For the sequence “SEEEDMKRKLAEIFLHNELTGNEDRLMELLDPNTRMEFNGREVHGREQISEVLRRWLEEIRIDDSKLHDIRVINGVAHIDVRLRGTVDGRHTILQVHLYLFVVNGRIKSFRIEIR”, the protease stability score was found to be 1.53.
On to “SEEEDQARKIMEILIHVFLTGDWHQLMRLLDPNTRYEIRFENHEEHNHGREDIVRWLIEFIEEMRTLVIIRHIEVQGDKAILDIELQLDINGREFRWKTLLHFRIVDGVLKMYYIHIE”, for which the protease stability score came out at 1.47.
As to “SEEEDRIRQALELELHYLRTGDEDSTRRLIDPHMKLTVNGKEHHGMDWFIEELRRVDHIEMHPHHIHSFGEKAHIRVKLTLHFDGVTFERDVTIVFHKVDGRWVIESMQLD”, the protease stability score worked out at 1.
“SEEEDTADEAIKLWLKLFITGDERTLARMMDPNTLNVVGDKEFHGWQFIIELVHKLFEEIRIHELTVEHLHVQGDKVRIDIRIDSRQGDKRHETKVEVILRKVNGRWTVEVIEIH” showed a protease stability score of 2.39.
In turn, “SEEEDTMRHLLHLLIEWELTGDWKNWQKLADPRTRIEINGRELHGRETYAEFIREVLEQFKNLVIHDFIMHDVKVFDGRVIVDGYVDTEINGVRTHIRVEFILIVVNGKLRRVSRIVR” yielded a protease stability score of 1.57.
“SEEEDYMRELAERFLHAFITGDWQFIYKMFDPRVRWNVDGQNFVGREQLVHHLEKIKREMRVRHFELKDIKIIDGVSFINGRVDTTYGDKSSEHEVHISLVLIDGRVKHVQIRLE” registered a protease stability score of 2.34.
The sequence “SEEEEAARHVLEEWLRSIRTGDEEFTERLLDPEARFHVNGVEIIGREHIIRRLREIRIHDIKMDVREIRIVDGRISIDVTYRIDGEVNGVKVDTSHEVRLVFVKINGRWLNRKEEVR” came in with a protease stability score of 1.66.
For the sequence “SEEEEAEREFWEEFLRTSRTGDEELFEELIDPNVKIDINGRDLHGMEEALDTFRELRIKDIKVKHVEEQGDKIILDGRVDGIFDGKYDRVEVTFFVLKIDGRWVYHSIRLE”, the protease stability score stood at 1.13.
Sequence “SEEEEAKRDLDERWFRSIETGDFHTLEKLLDPHAKVRINGKDYHGREYLEWEIRDLGVKVMEQRVIIHREHRQGDKIHLQGEIIRILHVDGREEHHRFEVHYVMLKINGRWILHRMEFR” came in with a protease stability score of 0.883.
Take “SEEEEATKEMSRLVLENLKTGDFDAFHRLFDPNAKLDVGDKHFHGREQIHEWYLHVREELGVDVSRVHEKHIQVIGNKVILHGELHLRIGDKRDDTTMWIVSKKFDGRWILSSMRIS”: the protease stability score stood at 1.32.
Sequence “SEEEEDAEEFSRLFAELMKTGDEESLHRLADPDVRLHYGDKDHHGREQYTESWKRILDELGVDNVRIELKSVRVINGVVYVDSLVRVGDKTFRLIVIFRKINGRWRLESVKVE” came in with a protease stability score of 1.29.
“SEEEEDAERAERLIFEYHRTGDERLFRELVDPNVRLRVGDKEYHGREDFLRIMLELRIDRMHLHEIRVVDGRVHSRTEVDGTWNGRKFLTETESIIIKINGRWVLHSFHFH” showed a protease stability score of 1.69.
In the case of “SEEEEDAHRNIELLVRYLITGDEETVSRLVDPHVKTDINGQEDHGWQIMSILMEKFKNVTLRLHDIETQGNFAVINMKMRFNGQTFDLHFFARKVNGRWFVEHIKIRQN”, the protease stability score was 1.62.
Regarding “SEEEEDARQAFEEYTESLKTGDEDTLDRLLDPDTLLIINGREIHGMEEAIRIWHVWLRHMRFRSQEMRRIRVIDGKIDIESRSIIDINGREVDLRVHYILHKVNGRWLIESVRFE”, the protease stability score turned out to be 2.38.
The figure for “SEEEEDARRAFEMWFRVLMTGDEDQVDRLMDPHVRVDINGVDLHGRTTIRRLIHEEFNRADVRSFDVEHVDYQGDWVRLEVRLILVFNGKRLELKMELISRKINGRWILESQVVE” is 1.39.
On to “SEEEEDARRMMEILIKTLKTGDWRTIRRLVDPNVRVDFNGVDDHGRENWLKHVLHIRFKRIYIRDVRVYDGRVHIHGEINIEFDGRSDHYEVEIHIDKVDGRWVITHILIV”, for which the protease stability score turned out to be 2.26.
To “SEEEEDIRKFLEDHHRAFATGDEKRLTELMDPNVRFDVNGVDRHGRELAVEMLHKQREEMGIDHLETIEMQDHEVYGDYIHLDVEVHIRVNGKRHILKRRILWLKINGRWTIKHEQLR” belongs 0.464; to “SEEEEDIRRLEEMLTKNLLTGNEHKLRRLADPHVQIHINGVDIVGMEWMVQVRREMRVEHVDSRIDDVRVIGDKAEVDGTLIIVGEVDGQRTNETIRIHRVFEKVNGRWILHSETFI”, 1.15; to “SEEEEDLKTMSDFVLHLFETGDEDIFNHFADPDARLHIGDKIAHGREHFKRVFEDLMHRLGVDHIEIRRRSITIIGDKVHAHVDGLTVIGDKVHHVELRFVIVKYNGRWFLKRVEVHNR”, 1.71.
With “SEEEEDMRKAHEFVDKLIHTGDEDETRRYADPNVLVTINGRRWVGRDDYVEVLREILHRADHVHLHEKSIRIVDGVVQINSNLFIKQGDKEIHLDIRFHIRKVNGRWDMKRMEIR”, the protease stability score was 1.64.
To “SEEEEDRRIAVEEMLRYWHTGDEEDLNRLFDPNVRADFNGKDLVGREHMKEHYERLGYDKFDVRVKDVRVIGDKVEMDGHLRFDGVERDLHIFVIKVNGRWLVKHTEYR” belongs 0.904.
With “SEEEEDSLIAWKLYFEIEQTGDEKSLEHYMDPDTRYSQGEFRMHGREYTYHIIFRNRKRLGWDRVEVRLHSYEIINGRIKLDMRVHVNGVDINLLVIAFKFNGKWTIETVRIE”, the protease stability score is 1.36.
“SEEEEDTERALRLELNLLMTGDEEQFWKNMDPHVRTHFNGQERHGREYATHVLRQLGVKHVRLHDVRIIGDKIDIDMRTNVDGRIFRVHIHSEKVNGRWHIHEFFIE” yielded a protease stability score of 1.07.
In turn, “SEEEEDTERAMELAHHLLFTGNWEIMLKLFDPHMRLEFNGVDNHGREQVIREIRERIKLLGITNIELEPEEVRVQGDKVILHSRVDYNGKHYETEFVAEKVDGRWFIRSMRYE” showed a protease stability score of 1.3.
To “SEEEEDVRIALLMLEHTMRTGDEEDTREMADPNVRVEVGDKELHGRELYVEWFHRLGVKHFDIREVRFIGDKVNIRGISHVNGRNYHVVLHARKIDGRWHLTLWEMR” belongs 1.41.
“SEEEEDVRKFVHMLMLSFITGDWKMLWEMLDPEVRLHVGDKTIIGRERFVSFMQRLLRELRIKDFHVDSIEIQGEKAIIHTTLHIVIGEKEEDRYVRYIVIKIDGRWLIHRVHIH”: the protease stability score was 2.74.
The sequence “SEEEEEADRLEEHWVKSLLTGDEEELAKNADPNTRLDIDGKIVHGMEHFIRFFSEIFKRVDHTEIRIRDSKFDGDKIHNRVEILIRFNGRTIRIDVRIIMRKVDGRWIHESMHIE” showed a protease stability score of 1.9.
“SEEEEEAERAIKLWIHNVLTGDEDSLTKLLDPHVKIIDYVNGVEINNHGREWVKHWLEHLRYDIIRIHEFRSQGDKVHVDGKSEGNYNGKHVETRVMFHLHVYNGVIKSVHIIHI” came in with a protease stability score of 1.63.
In turn, “SEEEEEAERIYRNWLHNLHTGNEESERLMADPDVRYEINGVERVGWEEVHHFLREIRVHLRHVEIKHSDLINGRAHIEGHVDMEVRVNGVTMRIRTDTILRVVVIDGRLKSVSQEIL” came in with a protease stability score of 0.648.
The figure for “SEEEEEAHKFIEDWRTALETGDFDSIKELIDPNVRLHIGDKDLVGREEWVRELRRRKERYKGLRLKVHIKHVDIFDGRLIVDAEIRIDIGDKHLHYRVHIFVHKVNGRWQMKRYEEE” is 2.57; for “SEEEEEAHRYQEEWKRVHRTGDEDRFRELMDPNVRIHLNINGKNIHLHGRQLAVDFLRHIHLHWRDHEIHTHDIRHFNGVTHVTGRLDGEVNGRRIDTHVEFHHHVFNGRIKSIIIIVH” it is 1.33.
